Patent US20230212319A1, “NOVEL ANTIGEN BINDING DOMAINS AND SYNTHETIC ANTIGEN RECEPTORS INCORPORATING THE SAME” (University of Southern California, priority 2020, published 2023)

B1: 22021 (protein)
chain: MALPVTALLLPLALLLHAARPQLQLQESGPGLVKPSETLSLTCTVSGDSISSGDYYWGWIRQPPGKGLEWIGHIYYSGVTYYNPSLKSRVTISVDTSRNQFSLKLSSVTAADTAVYYCTREDSSNWRSRGQGTLVTVSSLESGGGGSFEEVQLLESGGGLVQPGGSLRLSCAASGFTFSSYAMSWVRQAPGKGLEWVSSISGSGDYIYYADSVKGRFTISRDISKNTLYLQMNSLRAEDTAVYYCAKEGTGANSSLADYRGQGTLVTVSSTRIQNPDPAVYQLRDSKSSDKSVCLFTDFDSQTNVSQSKDSDVYITDKCVLDMRSMDFKSNSAVAWSNKSDFACANAFNNSIIPEDTFFPSPESSCDVKLVEKSFETDTNLNFQNLSVIGFRILLLKVAGFNLLMTLRLWSSRAKRSGSGVKQTLNFDLLKLAGDVESNPGPSRGHMTEYKPTVRLATRDDVPRAVRTLAAAFADYPATRHTVDPDRHIERVTELQELFLTRVGLDIGKVWVADDGAAVAVWTTPESVEAGAVFAEIGPRMAELSGSRLAAQQQMEGLLAPHRPKEPAWFLATVGVSPDHQGKGLGSAVVLPGVEAAERAGVPAFLETSAPRNLPFYERLGFTVTADVEVPEGPRTWCMTRKPGA
B2: 22066 (protein)
chain: MALPVTALLLPLALLLHAARPQLQLQESGPGLVKPSETLSLTCTVSGDSISSGDYYWGWIRQPPGKGLEWIGHIYYSGVTYYNPSLKSRVTISVDTSRNQFSLKLSSVTAADTAVYYCTREDSSNWRSRGQGTLVTVSSLEVAALEREDLKNVFPPEVAVFEPSEAEISHTQKATLVCLATGFYPDHVELSWWVNGKEVHSGVCTDPQPLKEQPALNDSRYCLSSRLRVSATFWQNPRNHFRCQVQFYGLSENDEWTQDRAKPVTQIVSAEAWGRADCGFTSESYQQGVLSATILYEILLGKATLYAVLVSALVLMAMVKRKDSRGRAKRSGSGATNFSLLKQAGDVEENPGPTSMDWIWRILFLVGAATGAHSFEVQLLESGGGLIQPGGSLRLSCAASGFTFSSHAMTWVRQAPGKGLEWVSAISGSGDYTHYADSVKGRFTISRDNSKNTVYLQMNSLRAEDSAVYYCAKDEDGGSLLGHRGQGTLVTVSSTRIQNPDPAVYQLRDSKSSDKSVCLFTDFDSQTNVSQSKDSDVYITDKCVLDMRSMDFKSNSAVAWSNKSDFACANAFNNSIIPEDTFFPSPESSCDVKLVEKSFETDTNLNFQNLSVIGFRILLLKVAGFNLLMTLRLWSSRAKRSGSGVKQTLNFDLLKLAGDVESNPGPSRGHMTEYKPTVRLATRDDVPRAVRTLAAAFADYPATRHTVDPDRHIERVTELQELFLTRVGLDIGKVWVADDGAAVAVWTTPESVEAGAVFAEIGPRMAELSGSRLAAQQQMEGLLAPHRPKEPAWFLATVGVSPDHQGKGLGSAVVLPGVEAAERAGVPAFLETSAPRNLPFYERLGFTVTADVEVPEGPRTWCMTRKPGA
B3: 22035 (protein)
chain: MALPVTALLLPLALLLHAARPQLQLQESGPGLVKPSETLSLTCTVSGDSISSGDYYWGWIRQPPGKGLEWIGHIYYSGVTYYNPSLKSRVTISVDTSRNQFSLKLSSVTAADTAVYYCTREDSSNWRSRGQGTLVTVSSLDSGGGGSFEQLQLQESGPGLVKPSETLSLTCTVSGGSISSGDYYWGWIRQPPGKGLEWIGHIYYSGATYYNPSLKSRVTISVDTSRNQFSLKLSSVTAADTAVYYCTRDDSSNWRSRGQGTLVTVSSTRIQNPDPAVYQLRDSKSSDKSVCLFTDFDSQTNVSQSKDSDVYITDKTVLDMRSMDFKSNSAVAWSNKSDFACANAFNNSIIPEDTFFPSPESSCDVKLVEKSFETDTNLNFQNLSVIGFRILLLKVAGFNLLMTLRLWSSRAKRSGSGVKQTLNFDLLKLAGDVESNPGPSRGHMTEYKPTVRLATRDDVPRAVRTLAAAFADYPATRHTVDPDRHIERVTELQELFLTRVGLDIGKVWVADDGAAVAVWTTPESVEAGAVFAEIGPRMAELSGSRLAAQQQMEGLLAPHRPKEPAWFLATVGVSPDHQGKGLGSAVVLPGVEAAERAGVPAFLETSAPRNLPFYERLGFTVTADVEVPEGPRTWCMTRKPGA
B4: 22067 (protein)
chain: MALPVTALLLPLALLLHAARPQLQLQESGPGLVKPSETLSLTCTVSGDSISSGDYYWGWIRQPPGKGLEWIGHIYYSGVTYYNPSLKSRVTISVDTSRNQFSLKLSSVTAADTAVYYCTREDSSNWRSRGQGTLVTVSSLEAAAKEDLKNVFPPEVAVFEPSEAEISHTQKATLVCLATGFYPDHVELSWWVNGKEVHSGVCTDPQPLKEQPALNDSRYCLSSRLRVSATFWQNPRNHFRCQVQFYGLSENDEWTQDRAKPVTQIVSAEAWGRADCGFTSESYQQGVLSATILYEILLGKATLYAVLVSALVLMAMVKRKDSRGRAKRSGSGATNFSLLKQAGDVEENPGPTSMDWIWRILFLVGAATGAHSFEVQLLESGGGLIQPGGSLRLSCAASGFTFSSHAMTWVRQAPGKGLEWVSAISGSGDYTHYADSVKGRFTISRDNSKNTVYLQMNSLRAEDSAVYYCAKDEDGGSLLGHRGQGTLVTVSSTRIQNPDPAVYQLRDSKSSDKSVCLFTDFDSQTNVSQSKDSDVYITDKCVLDMRSMDFKSNSAVAWSNKSDFACANAFNNSIIPEDTFFPSPESSCDVKLVEKSFETDTNLNFQNLSVIGFRILLLKVAGFNLLMTLRLWSSRAKRSGSGVKQTLNFDLLKLAGDVESNPGPSRGHMTEYKPTVRLATRDDVPRAVRTLAAAFADYPATRHTVDPDRHIERVTELQELFLTRVGLDIGKVWVADDGAAVAVWTTPESVEAGAVFAEIGPRMAELSGSRLAAQQQMEGLLAPHRPKEPAWFLATVGVSPDHQGKGLGSAVVLPGVEAAERAGVPAFLETSAPRNLPFYERLGFTVTADVEVPEGPRTWCMTRKPGA
B5: 22046 (protein)
chain: MALPVTALLLPLALLLHAARPQLQLQESGPGLVKPSETLSLTCTVSGDSISSGDYYWGWIRQPPGKGLEWIGHIYYSGVTYYNPSLKSRVTISVDTSRNQFSLKLSSVTAADTAVYYCTREDSSNWRSRGQGTLVTVSSLESGGGGSFEEVQLLESGGGLVQPGGSLRLSCAASGFTFSSYAMSWVRQAPGKGLEWVSSISGSGDYIYYADSVKGRFTISRDISKNTLYLQMNSLRAEDTAVYYCAKEGTGANSSLADYRGQGTLVTVSSTRDKTHTCPPCPAIPEDTFFPSPESSCDVKLVEKSFETDTNLNFQNLSVIGFRILLLKVAGFNLLMTLRLWSSRAKRSGSGVKQTLNFDLLKLAGDVESNPGPSRGHMTEYKPTVRLATRDDVPRAVRTLAAAFADYPATRHTVDPDRHIERVTELQELFLTRVGLDIGKVWVADDGAAVAVWTTPESVEAGAVFAEIGPRMAELSGSRLAAQQQMEGLLAPHRPKEPAWFLATVGVSPDHQGKGLGSAVVLPGVEAAERAGVPAFLETSAPRNLPFYERLGFTVTADVEVPEGPRTWCMTRKPGA
B6: 22060 (protein)
chain: MALPVTALLLPLALLLHAARPQLQLQESGPGLVKPSETLSLTCTVSGDSISSGDYYWGWIRQPPGKGLEWIGHIYYSGVTYYNPSLKSRVTISVDTSRNQFSLKLSSVTAADTAVYYCTREDSSNWRSRGQGTLVTVSSLEGSGGGGSGGGGSGEDLKNVFPPEVAVFEPSEAEISHTQKATLVCLATGFYPDHVELSWWVNGKEVHSGVCTDPQPLKEQPALNDSRYCLSSRLRVSATFWQNPRNHFRCQVQFYGLSENDEWTQDRAKPVTQIVSAEAWGRADCGFTSESYQQGVLSATILYEILLGKATLYAVLVSALVLMAMVKRKDSRGRAKRSGSGATNFSLLKQAGDVEENPGPTSMDWIWRILFLVGAATGAHSFEVQLLESGGGLIQPGGSLRLSCAASGFTFSSHAMTWVRQAPGKGLEWVSAISGSGDYTHYADSVKGRFTISRDNSKNTVYLQMNSLRAEDSAVYYCAKDEDGGSLLGHRGQGTLVTVSSTRIQNPDPAVYQLRDSKSSDKSVCLFTDFDSQTNVSQSKDSDVYITDKCVLDMRSMDFKSNSAVAWSNKSDFACANAFNNSIIPEDTFFPSPESSCDVKLVEKSFETDTNLNFQNLSVIGFRILLLKVAGFNLLMTLRLWSSRAKRSGSGVKQTLNFDLLKLAGDVESNPGPSRGHMTEYKPTVRLATRDDVPRAVRTLAAAFADYPATRHTVDPDRHIERVTELQELFLTRVGLDIGKVWVADDGAAVAVWTTPESVEAGAVFAEIGPRMAELSGSRLAAQQQMEGLLAPHRPKEPAWFLATVGVSPDHQGKGLGSAVVLPGVEAAERAGVPAFLETSAPRNLPFYERLGFTVTADVEVPEGPRTWCMTRKPGA

Each molecule was assayed on Nalm6 cells (assay: JNG assay, co-culture with Nalm6 cells). Conditions: co-culture with Nalm6.
Type: cell-based
Method in brief: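 Read-out: % GFP-positive cells by flow cytometry after ~4 to 18 h coculture of SAR-transduced JNG cells with targets (E:T about 1:2). Scores reflect GFP induction above parental JNG controls: +/- ≈5%, + ≈10%, up to 5+ ≈50%.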

Molecule | NFAT-GFP ASSAY: Nalm6
B1 | Raji (+/-), Nalm6 (+/-), L363 (+/-) (refer to approximately 5%, 10%, 20%, 30%, 40% and 50% GFP positive cells)
B2 | +/- (refer to approximately 5%, 10%, 20%, 30%, 40% and 50% GFP positive cells)
B3 | Raji (+/-), Nalm6 (+/-), L363 (+/-) (refer to approximately 5%, 10%, 20%, 30%, 40% and 50% GFP positive cells)
B4 | +/- (refer to approximately 5%, 10%, 20%, 30%, 40% and 50% GFP positive cells)
B5 | +/- (refer to approximately 5%, 10%, 20%, 30%, 40% and 50% GFP positive cells)
B6 | +/- (refer to approximately 5%, 10%, 20%, 30%, 40% and 50% GFP positive cells)

The molecules below were run on RAJI cells (assay: JNG assay, co-culture with RAJI cells). Conditions: JNG cells expressing construct, co-culture with Raji.
Type: cell-based
Method in brief: (§1)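 Read-out is NFAT-driven GFP measured by flow cytometry after ~4–18 h co-culture of SAR-expressing JNG cells with target cells (E:T about 1:2). SARs were introduced by lentiviral spinfection and selected with puromycin or blasticidin when possible; scores (+/- to 5+ ≈ 5–50% GFP+) are relative to parental JNG cells.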

Molecule | NFAT-GFP ASSAY: Raji
B1 | Raji (+/-), Nalm6 (+/-), L363 (+/-) (refer to approximately 5%, 10%, 20%, 30%, 40% and 50% GFP positive cells)
B2 | +/- (refer to approximately 5%, 10%, 20%, 30%, 40% and 50% GFP positive cells)
B3 | Raji (+/-), Nalm6 (+/-), L363 (+/-) (refer to approximately 5%, 10%, 20%, 30%, 40% and 50% GFP positive cells)
B4 | +/- (refer to approximately 5%, 10%, 20%, 30%, 40% and 50% GFP positive cells)
B5 | 2+ (refer to approximately 5%, 10%, 20%, 30%, 40% and 50% GFP positive cells)
B6 | 2+ (refer to approximately 5%, 10%, 20%, 30%, 40% and 50% GFP positive cells)

Each molecule was assayed on L363 cells (assay: JNG assay, co-culture with L363 cells). Conditions: co-culture with L363.
Type: cell-based
Method in brief: as §1

Molecule | NFAT-GFP ASSAY: L363
B1 | Raji (+/-), Nalm6 (+/-), L363 (+/-) (refer to approximately 5%, 10%, 20%, 30%, 40% and 50% GFP positive cells)
B2 | +/- (refer to approximately 5%, 10%, 20%, 30%, 40% and 50% GFP positive cells)
B3 | Raji (+/-), Nalm6 (+/-), L363 (+/-) (refer to approximately 5%, 10%, 20%, 30%, 40% and 50% GFP positive cells)
B4 | + (refer to approximately 5%, 10%, 20%, 30%, 40% and 50% GFP positive cells)
B5 | + (refer to approximately 5%, 10%, 20%, 30%, 40% and 50% GFP positive cells)
B6 | 2+ (refer to approximately 5%, 10%, 20%, 30%, 40% and 50% GFP positive cells)
